Laboratory results from the supplement of paper PMC11811203.

B1: THAP1; numbered along this chain (parent)
chain: MVQSCSAYGCKNRYDKDKPVSFHKFPLTRPSLCKEWEAAVRRKNFKPTKYSSICSEHFTPDCFKRECNNKLLKENAVPTIFLCTEPHDKKEDLLEPQEQLPPPPLPPPVSQVDAAIGLLMPPLQTPVNLSVFCDHNYTVEDTMHQRKRIHQLEQQVEKLRKKLKTAQQRCRRQERQLEKLKEVVHFQKEKDDVSERGYVILPNDYFEIVEVPA

Variants of: B1
Test: THAP1 transcriptional activity (GFP+/GFP- enrichment relative to wild-type constructs) (ratio to WT); higher = more THAP1 activity (PSMB5 reporter activation)
Settings: with PSMB5 promoter-GFP reporter
Summary of the method: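 Activity values are replicate-mean bright/dim read fold changes divided by the mean of wild-type synonymous constructs. They come from a human THAP1 site-saturation library (residues 2–213, each changed to all 20 amino acids) delivered by lentivirus at MOI ~0.3, in duplicate, into THAP1-knockout HEK-293T cells with mClover3 at endogenous PSMB5. BFP+ cells were sorted into GFP-dim and GFP-bright bins after five days, and variants were counted by Illumina sequencing of genomic DNA amplicons.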

**Q.** How did the THAP1 transcriptional activity turn out when MVQSCSAYGCKNRYDKDKPVSFHKFPLTRPSLCKEWEAAVRRKNFKPTKYSSICSEHFTPDCFKRECNNKLLKENAVPTIFLCTEPHDKKEDLLEPQEQTPPPPLPPPVSQVDAAIGLLMPPLQTPVNLSVFCDHNYTVEDTMHQRKRIHQLEQQVEKLRKKLKTAQQRCRRQERQLEKLKEVVHFQKEKDDVSERGYVILPNDYFEIVEVPA [L100T] was run?
**A.** The THAP1 transcriptional activity was 1.6.

**Q.** How did the THAP1 transcriptional activity turn out when MVQSCSAYGCKNRYDKDKPVSFHKFPLTRPSLCKEWEAAVRRKNFKPTKYSSICSEHFTPDCFKRECNNKLLKENAVPTIFLCTEPHDKKEDLLEPQEQWPPPPLPPPVSQVDAAIGLLMPPLQTPVNLSVFCDHNYTVEDTMHQRKRIHQLEQQVEKLRKKLKTAQQRCRRQERQLEKLKEVVHFQKEKDDVSERGYVILPNDYFEIVEVPA [L100W] was run?
**A.** The THAP1 transcriptional activity was 0.65.

**Q.** How did the THAP1 transcriptional activity turn out when MVQSCSAYGCKNRYDKDKPVSFHKFPLTRPSLCKEWEAAVRRKNFKPTKYSSICSEHFTPDCFKRECNNKLLKENAVPTIFLCTEPHDKKEDLLEPQEQYPPPPLPPPVSQVDAAIGLLMPPLQTPVNLSVFCDHNYTVEDTMHQRKRIHQLEQQVEKLRKKLKTAQQRCRRQERQLEKLKEVVHFQKEKDDVSERGYVILPNDYFEIVEVPA [L100Y] was run?
**A.** Its THAP1 transcriptional activity is 0.692.

**Q.** For MVQSCSAYGCKNRYDKDKPVSFHKFPLTRPSLCKEWEAAVRRKNFKPTKYSSICSEHFTPDCFKRECNNKLLKENAVPTIFLCTEPHDKKEDLLEPQEQVPPPPLPPPVSQVDAAIGLLMPPLQTPVNLSVFCDHNYTVEDTMHQRKRIHQLEQQVEKLRKKLKTAQQRCRRQERQLEKLKEVVHFQKEKDDVSERGYVILPNDYFEIVEVPA [L100V], which THAP1 transcriptional activity is on record?
**A.** Its THAP1 transcriptional activity is 1.84.

**Q.** For MVQSCSAYGCKNRYDKDKPVSFHKFPLTRPSLCKEWEAAVRRKNFKPTKYSSICSEHFTPDCFKRECNNKLLKENAVPTIFLCTEPHDKKEDLLEPQEQLSPPPLPPPVSQVDAAIGLLMPPLQTPVNLSVFCDHNYTVEDTMHQRKRIHQLEQQVEKLRKKLKTAQQRCRRQERQLEKLKEVVHFQKEKDDVSERGYVILPNDYFEIVEVPA [P101S], which THAP1 transcriptional activity is on record?
**A.** Its THAP1 transcriptional activity is 1.96.

**Q.** How did the THAP1 transcriptional activity turn out when MVQSCSAYGCKNRYDKDKPVSFHKFPLTRPSLCKEWEAAVRRKNFKPTKYSSICSEHFTPDCFKRECNNKLLKENAVPTIFLCTEPHDKKEDLLEPQEQLKPPPLPPPVSQVDAAIGLLMPPLQTPVNLSVFCDHNYTVEDTMHQRKRIHQLEQQVEKLRKKLKTAQQRCRRQERQLEKLKEVVHFQKEKDDVSERGYVILPNDYFEIVEVPA [P101K] was run?
**A.** The THAP1 transcriptional activity was 1.21.

**Q.** How did the THAP1 transcriptional activity turn out when MVQSCSAYGCKNRYDKDKPVSFHKFPLTRPSLCKEWEAAVRRKNFKPTKYSSICSEHFTPDCFKRECNNKLLKENAVPTIFLCTEPHDKKEDLLEPQEQLYPPPLPPPVSQVDAAIGLLMPPLQTPVNLSVFCDHNYTVEDTMHQRKRIHQLEQQVEKLRKKLKTAQQRCRRQERQLEKLKEVVHFQKEKDDVSERGYVILPNDYFEIVEVPA [P101Y] was run?
**A.** Its THAP1 transcriptional activity is 1.08.

**Q.** For MVQSCSAYGCKNRYDKDKPVSFHKFPLTRPSLCKEWEAAVRRKNFKPTKYSSICSEHFTPDCFKRECNNKLLKENAVPTIFLCTEPHDKKEDLLEPQEQLFPPPLPPPVSQVDAAIGLLMPPLQTPVNLSVFCDHNYTVEDTMHQRKRIHQLEQQVEKLRKKLKTAQQRCRRQERQLEKLKEVVHFQKEKDDVSERGYVILPNDYFEIVEVPA [P101F], which THAP1 transcriptional activity is on record?
**A.** Its THAP1 transcriptional activity is 0.64.

**Q.** For MVQSCSAYGCKNRYDKDKPVSFHKFPLTRPSLCKEWEAAVRRKNFKPTKYSSICSEHFTPDCFKRECNNKLLKENAVPTIFLCTEPHDKKEDLLEPQEQLTPPPLPPPVSQVDAAIGLLMPPLQTPVNLSVFCDHNYTVEDTMHQRKRIHQLEQQVEKLRKKLKTAQQRCRRQERQLEKLKEVVHFQKEKDDVSERGYVILPNDYFEIVEVPA [P101T], which THAP1 transcriptional activity is on record?
**A.** The THAP1 transcriptional activity was 1.5.

**Q.** How did the THAP1 transcriptional activity turn out when MVQSCSAYGCKNRYDKDKPVSFHKFPLTRPSLCKEWEAAVRRKNFKPTKYSSICSEHFTPDCFKRECNNKLLKENAVPTIFLCTEPHDKKEDLLEPQEQLQPPPLPPPVSQVDAAIGLLMPPLQTPVNLSVFCDHNYTVEDTMHQRKRIHQLEQQVEKLRKKLKTAQQRCRRQERQLEKLKEVVHFQKEKDDVSERGYVILPNDYFEIVEVPA [P101Q] was run?
**A.** The THAP1 transcriptional activity was 1.61.

**Q.** How did the THAP1 transcriptional activity turn out when MVQSCSAYGCKNRYDKDKPVSFHKFPLTRPSLCKEWEAAVRRKNFKPTKYSSICSEHFTPDCFKRECNNKLLKENAVPTIFLCTEPHDKKEDLLEPQEQLGPPPLPPPVSQVDAAIGLLMPPLQTPVNLSVFCDHNYTVEDTMHQRKRIHQLEQQVEKLRKKLKTAQQRCRRQERQLEKLKEVVHFQKEKDDVSERGYVILPNDYFEIVEVPA [P101G] was run?
**A.** Its THAP1 transcriptional activity is 1.27.

**Q.** Which THAP1 transcriptional activity does the source give for MVQSCSAYGCKNRYDKDKPVSFHKFPLTRPSLCKEWEAAVRRKNFKPTKYSSICSEHFTPDCFKRECNNKLLKENAVPTIFLCTEPHDKKEDLLEPQEQLHPPPLPPPVSQVDAAIGLLMPPLQTPVNLSVFCDHNYTVEDTMHQRKRIHQLEQQVEKLRKKLKTAQQRCRRQERQLEKLKEVVHFQKEKDDVSERGYVILPNDYFEIVEVPA [P101H] here?
**A.** The THAP1 transcriptional activity was 0.968.

**Q.** For MVQSCSAYGCKNRYDKDKPVSFHKFPLTRPSLCKEWEAAVRRKNFKPTKYSSICSEHFTPDCFKRECNNKLLKENAVPTIFLCTEPHDKKEDLLEPQEQLLPPPLPPPVSQVDAAIGLLMPPLQTPVNLSVFCDHNYTVEDTMHQRKRIHQLEQQVEKLRKKLKTAQQRCRRQERQLEKLKEVVHFQKEKDDVSERGYVILPNDYFEIVEVPA [P101L], which THAP1 transcriptional activity is on record?
**A.** Its THAP1 transcriptional activity is 1.19.

**Q.** How did the THAP1 transcriptional activity turn out when MVQSCSAYGCKNRYDKDKPVSFHKFPLTRPSLCKEWEAAVRRKNFKPTKYSSICSEHFTPDCFKRECNNKLLKENAVPTIFLCTEPHDKKEDLLEPQEQLWPPPLPPPVSQVDAAIGLLMPPLQTPVNLSVFCDHNYTVEDTMHQRKRIHQLEQQVEKLRKKLKTAQQRCRRQERQLEKLKEVVHFQKEKDDVSERGYVILPNDYFEIVEVPA [P101W] was run?
**A.** Its THAP1 transcriptional activity is 0.985.
